# Several values for one entry are separate records, joined by “and”; a condition that tells them apart may be missing. Identical values can stand only once.
# Assays:
# [1] = system: laser-induced choroidal neovascularization rat model; experiment: Laser-induced choroidal neovascularization rat model: CNV area in choroidal flat mount (FITC-dextran); type: in vivo
# Protocol: The groups were set as in Table 8 below. Laser irradiation was performed on the right eye in 10 animals in each group. EYLEA (registered trademark) was administered intravitreally into the right eye of individuals in Group 2 immediately after laser irradiation. For the individuals of Groups 1, 3, and 4, eyedrop administration of the administration substances of each group was performed four times a day from the day of laser irradiation to the day before eyeball enucleation.
# Animals to be laser-irradiated were subjected to pupil dilation with Mydorin (registered trademark) P ophthalmic solution, and subjected to general anesthesia by intramuscular injection of a mixed solution of ketamine hydrochloride/xylazine hydrochloride (4:1, v/v) (1 mL/kg) into the thigh muscle. Then, fundus of the right eye was then observed using a slit lamp (SL-130, Carl Zeiss Meditec AG), and laser irradiation was performed at six locations using a green laser photocoagulation device (GYC-500, Nidek Co., Ltd.), avoiding thick capillaries of the retina. The laser conditions were a wavelength of 532 nm (green), a spot size of 50 μm, an irradiation time of 0.1 sec, and a laser irradiation intensity of 300 mW. Except for the individuals to be administered EYLEA (registered trademark), sodium hyaluronate (Hyalein (registered trademark) ophthalmic solution 0.3%, Santen Pharmaceutical Co., Ltd.) as an eye drop for treatment of corneal and conjunctival epithelial disorders was instilled into both eyes after laser irradiation.
# Levofloxacin hydrate (CRAVIT (registered trademark) 1.5% ophthalmic solution, Santen Pharmaceutical Co., Ltd.) as a broad-spectrum antibacterial eye drop and oxybuprocaine hydrochloride (Benoxil (registered trademark) 0.4% ophthalmic solution, Santen Pharmaceutical Co., Ltd.) as an ophthalmic topical anesthetic were once instilled into the right eye of rats in Group 2 (EYLEA (registered trademark) administration group) after end of laser irradiation, and then EYLEA (registered trademark) was intravitreally administered at a dose of 200 μg/5 μL/eye using a 33 G two-stage injection needle and a microsyringe (Ito Manufacturing Co., Ltd.). The microsyringe was washed with D-PBS before administration. Hyalein (registered trademark) ophthalmic solution 0.3% was instilled into both eyes after intravitreal administration.
# Eyedrop administration of the test substance and the negative control administration solution was performed in a volume of 5 μL/eye using a micropipette (Eppendorf Research Plus V, Eppendorf) at the administration period and the number of times determined for each group (see Group constitution table of Item (2)). At that time, since a test substance solution adheres to an outer side of the tip, care was taken so that the adhering test substance solution was wiped off with a Kimwipe once each time of eyedrop administration, and an excessive amount of the test substance solution was not instilled. In addition, although the tip of the pipette tip was sharp, care was taken not to damage the eyeball surface. Immediately before administration, the administration solution was lightly (about several seconds) centrifuged using a small microcentrifuge Wonder Spin, and the supernatant was used for administration.
# Fourteen days after laser irradiation (Day 14), under general anesthesia by intramuscular femoral administration (1 mL/kg) of a ketamine hydrochloride/xylazine hydrochloride (4:1, v/v) mixed solution, a 4% FITC-dextran solution was administered to the tail vein at a dose of 40 mg/l mL/animal.
# After 1 minute from the tail vein administration of the 4% FITC-dextran solution, rats were euthanized by excessive anesthesia by administration of 129.6 mg/mL sodium pentobarbital solution and the right eye ball was enucleated. The enucleated eyeball was fixed in a 4% paraformaldehyde phosphate buffer (FUJIFILM Wako Pure Chemical Corporation, hereinafter referred to as 4% PFA) for 12 to 30 hours at normal temperature. […]
# [2] = Body weight measurement during the CNV rat test; type: in vivo; conditions: for Body Weight (Average): Group 2, IVT inj. 200 μg/5 μL/eye single dose; for Weight (g) (Individual): Group 2 individual animals, IVT 200 μg/5 μL/eye
# Protocol: The appearance, behavior, and state of excrement or the like were observed every day.
# The body weight was measured on the animal arrival date, the preliminary housing end date (grouping date), the eyedrop administration start date, the laser irradiation date (Day 0), and the eyeball enucleation date (Day 14).
substance,measurement,setting,value
Aflibercept [EYLEA],"Area of CNV Lesion, Mean","[1]; Group 2, IVT inj. 200 μg/5 μL/eye single dose after irradiation, 14 days after laser, N=10",421359.3 pixel
same,"CNV area compared with Group 1 (saline), in words","[1]; Group 2, intravitreal 200 μg/5 μL/eye, Student's t-test",CNV area was significantly reduced
same,Individual Value of CNV Area in Each Animal,"[1]; Group 2 individual animals, IVT 200 μg/5 μL/eye, 14 days after laser",396255.8 pixel and 417758.8 pixel and 460248.8 pixel and 470883.0 pixel and 474112.7 pixel and 444455.3 pixel and 440849.3 pixel and 374017.3 pixel and 402387.0 pixel and 332625.3 pixel
same,Body Weight (Average),[2]; Day 0 (Laser injection),155.10 g
same,Body Weight (Average),[2]; Day 14 (Enucleation),200.52 g
same,Body Weight (Average),[2]; Day −3 or Day −2 (Grouping),141.91 g
same,Weight (g) (Individual),[2]; Enucleation (Day 14),191.41 g and 189.23 g and 203.15 g and 192.58 g and 215.19 g and 210.30 g and 206.10 g and 205.20 g and 197.20 g and 194.87 g
same,Weight (g) (Individual),[2]; Grouping (Day −3 or −2),132.69 g and 135.94 g and 139.54 g and 143.39 g and 145.96 g and 144.35 g and 147.21 g and 151.85 g and 140.51 g and 137.64 g
same,Weight (g) (Individual),[2]; Laser injection (Day 0),140.59 g and 146.82 g and 151.42 g and 154.62 g and 160.15 g and 162.32 g and 160.99 g and 169.71 g and 155.47 g and 148.87 g

# From patent US20260091082A1, “CYCLIC PEPTIDE DERIVATIVE COMPOSITION FOR TREATING OR PREVENTING EYE DISEASE” (DKS Co. Ltd., priority 2022, published 2026)
